The text below walks through data of patent publication EP4361176A1.

Residue numbers refer to the chain shown, from its start.

Test [1] deals with human FcγRIIb extracellular domain with C-terminal His-tag (human) (UniProt P31994). The test can be described thus: SPR (Biacore T200), FcγRIIb, amount bound per unit captured antibody.
For test [2] the target is unchanged. Briefly: SPR; binding amount / that of 04H1656-G1m/04L1610-lam1.
Test [3] has as its target T1, hCTLA4-His-BAP (human).
T1 sequence (chain, biotin on the BAP-tag): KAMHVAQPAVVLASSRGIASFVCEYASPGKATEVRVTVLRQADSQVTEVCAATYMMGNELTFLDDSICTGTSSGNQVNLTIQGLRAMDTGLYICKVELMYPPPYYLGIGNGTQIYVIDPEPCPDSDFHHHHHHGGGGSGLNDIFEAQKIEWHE
Briefly: IgG ELISA, absorbance with / without AMP.

For test [4], the target named is T1, hCTLA4-His-BAP (human). The test can be described thus: IgG ELISA, 2.5 ug/mL IgG, 1 mM AMP.
The target in test [5] is T1, hCTLA4-His-BAP (human). Briefly: IgG ELISA, 2.5 ug/mL IgG, no AMP.
Test [6] deals with human CTLA4 (soluble analyte of the Biacore assays of Reference Example 3-3) (human) (UniProt P16410). The test can be described thus: SPR Biacore T200, 10 uM ATP.

Sequence of human FcγRIIb extracellular domain with C-terminal His-tag (human) (P31994 43-217): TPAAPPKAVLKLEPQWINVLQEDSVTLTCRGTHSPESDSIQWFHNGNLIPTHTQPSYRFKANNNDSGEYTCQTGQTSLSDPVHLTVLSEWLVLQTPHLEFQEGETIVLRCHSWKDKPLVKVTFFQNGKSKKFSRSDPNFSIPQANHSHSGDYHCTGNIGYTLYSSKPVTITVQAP

B1: 04H1654-KT462/04L1610-lam1//04H1656-HT441/04L1610-lam1 (antibody, human IgG1, lambda)
heavy 1: QVQLVESGGGVVQPGGSLRLSCAASGFTFSSKTMNWVRQAPGKGLEWVSSISTQSHYIYYARSVRGRFTISRDNAKNSLYLQMNSLRAEDTAVYYCARYGKREDMLWVFDYWGQGTLVTVSSASTKGPSVFPLAPSSKSTSGGTAALGCLVKDYFPEPVTVSWNSGALTSGVHTFPAVLQSSGLYSLSSVVTVPSSSLGTQTYICNVNHKPSNTKVDKRVEPKSCDKTHTCPPCPAPEFQWGPMVFLFPPKPKDVLMISRTPEVTCVVVDVSDEEPEVKFNWYVDGVEVHNAKTKPREEQYNATYRVVSVLPVLHQDWLNGKEYKCKVSNDALPAPIEKTISKAKGQPREPQVYTLPPSRKEMTKNQVSLTCLVKGFYPSDIAVEWESNGQPENNYKTTPPVLDSDGSFFLYSKLTVDKSRWQQGNVFSCSVMHEALHNHYTQKSLSLSP
heavy 2: B1 heavy 1 with R62E, K101A, F239L, Q240L, W241A, M244S, D273H, K339E, K361E, K444E
light: QSALTQPPSASGSPGQSVTISCEGPSTGVGDYNWVHWYQQHPGKAPKLMIYFTSKKPSGVPDRFSGSKSGNTASLTVSGLQAEDEADYYCQTYAAPLGPMFGGGTKLTVLGQPKAAPSVTLFPPSSEELQANKATLVCLISDFYPGAVTVAWKADSSPVKAGVETTTPSKQSNNKYAASSYLSLTPEQWKSHRSYSCQVTHEGSTVEKTVAPTECS
As for B1, the Binding amount in test [1] amounted to 0.014. In addition, the Relative binding amount in test [2] is 1.7.

B2: 04H1654-KT473/04L1610-lam1//04H1656-HT451/04L1610-lam1 (antibody)
heavy 1: B1 heavy 1 with N439A, Y441T, Q443R, S445E
heavy 2: QVQLVESGGGVVQPGGSLRLSCAASGFTFSSKTMNWVRQAPGKGLEWVSSISTQSHYIYYAESVRGRFTISRDNAKNSLYLQMNSLRAEDTAVYYCARYGAREDMLWVFDYWGQGTLVTVSSASTKGPSVFPLAPSSKSTSGGTAALGCLVKDYFPEPVTVSWNSGALTSGVHTFPAVLQSSGLYSLSSVVTVPSSSLGTQTYICNVNHKPSNTKVDKRVEPKSCDKTHTCPPCPAPELLAGPSVFLFPPKPKDVLMISRTPEVTCVVVDVSHEEPEVKFNWYVDGVEVHNAKTKPREEQYNATYRVVSVLPVLHQDWLNGKEYKCKVSNDALPAPIEETISKAKGQPREPQVYTLPPSREEMTKNQVSLTCLVKGFYPSDIAVEWESNGQPENNYKTTPPVLDSDGSFFLYSKLTVDKSRWQQGNVFSCSVMHEALHAHTTREELSLSP
light: B1 light
In the case of B2, the Binding amount in test [1] was 0.012. The molecule further registered a Relative binding amount in test [2] of 1.5.

B3: ABAM005 (antibody, human IgG1, V domains shown)
VH: EVQLVESGGDLVKPGGGLRLSCAASGFTFSGYTMNWVRQAPGKGLEWVSSISSRSNYISYADSVKGRFTISRDNAKNSLYLQMNSLRAEDTAVYYCARYGALNHMLWVFDYWGQGTLVTVSS
VL: QSALTQPPSASGSPGQTVTISCTGTSTDVGAYNYVSWYQQHPGKAPKLMIYSTSKRPSGVPDRFSGSKSGNTASLTVSGLQAEDEADYFCSLYRYAQGVVFGGGTKLTVL
The molecule B3 yielded a S/N in test [3] of 4.46. Moreover, the 450 nm Absorbance in test [4] is 0.303; in test [5], 0.069.

B4: ABAM006 (antibody, human IgG1, V domains shown)
VH: EVQLVESGGDLVKPGGGLRLSCAASGFTFSTYTMHWVRQAPGKGLEWVSSISSRSGHAHYADSVKGRFTISRDNAKNSLYLQMNSLRAEDTAVYYCARFGRKKKRLWVFDYWGQGTLVTVSS
VL: B3 VL with A31F, S52Q, T53N, L92T, Y93N, Y95A, Q97R, G98S, V100A
Regarding B4, in test [3], the S/N worked out at 3.86. Besides, the 450 nm Absorbance is 3 in test [4] and 0.776 in test [5].

B5: 04H1389-G1m/04L1086-lam1 (antibody, human IgG1, lambda, V domains shown)
VH: EVQLVESGGGLVKPGGSLRLSCAASGFTFSSKTMNWVRQAPGKGLEWVSSISTQSHYIYYAESVKGRFTISRDNAKNSLYLQMNSLRAEDTAVYYCARYGKREDMLWVFDYWGQGTLVTVSS
VL: QSALTQPPSASGSPGQTVTISCDGPSTGVGDYNYVHWYQQHPGKAPKLMIYFTSKKPSGVPDRFSGSKSGNTASLTVSGLQAEDEADYFCQTYAAPLGPMFGGGTKLTVLG
B5: the fold enhanced binding vs parent 04H1207-G1m/04L1086-lam1 in test [6] was 10 fold.

B6: 04H1382-G1m/04L1086-lam1 (antibody, human IgG1, lambda, V domains shown)
VH: B5 VH with E62R
VL: B5 VL
For the molecule B6, the fold enhanced binding vs parent 04H1208-G1m/04L1086-lam1 in test [6] is 10 fold.
